{"source": "patent US20250027060A1", "about": "(VIB VZW, published 2025)", "key": {"[1]": {"target": "T1, LTKTG-EGFL (human LTK amino acids 63-420) (human, UniProt P29376 63-420)", "T1 construct": "Fc-His6 tag removed by caspase 3; also called LTK (in BLI, SEC-MALLS and ITC)", "T1 sequence": "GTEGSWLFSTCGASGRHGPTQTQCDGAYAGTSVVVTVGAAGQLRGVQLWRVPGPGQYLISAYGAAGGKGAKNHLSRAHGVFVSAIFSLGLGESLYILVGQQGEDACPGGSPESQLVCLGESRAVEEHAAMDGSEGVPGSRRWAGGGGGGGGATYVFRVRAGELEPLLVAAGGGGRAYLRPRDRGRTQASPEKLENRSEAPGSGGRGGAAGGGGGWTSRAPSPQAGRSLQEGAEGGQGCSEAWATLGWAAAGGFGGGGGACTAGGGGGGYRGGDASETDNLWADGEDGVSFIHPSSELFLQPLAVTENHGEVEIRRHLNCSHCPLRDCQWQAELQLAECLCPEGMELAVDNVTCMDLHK", "assay": "BLI, biotinylated ALKAL1 F76E on streptavidin biosensors, LTKTG-EGFL in solution, dilution series 6.4 µM-400 nM, biphasic fit, component 1", "description": "(§1) FIGS. 10A and 10B Representative response curves as measure by biolayer-interferometry (BLI) for the interaction of WT ALKAL1 and ALKAL1 mutants (containing charge-reversal mutations of residues involved in site 1) (FIG. 10A) and WT ALKAL2 and ALKAL2 mutants (FIG. 10B) with ALK_TG-EGFL and LTK_TG-EGFL. For WT ALKALs LTK curves were fitted with a 2:1 binding model (red) while for ALK a 1:1 model was used. Start and end concentrations of the 3-fold dilution series used for the WT measurements is shown as an inset while for all mutants a […] dilution series from 6.4 μM-400 nM was used.\n(§2) All measurements of binding kinetics and dissociation constants were performed using an Octet Red 96 (Forté Bio) in assay buffer (20 mM HEPES pH 7.4, 150 mM NaCl, 0.02% (w/v) BSA, 0.002% (v/v) Tween 20) at 298K. ALKALs were immobilized to a level of 0.5 nm on streptavidin-coated biosensors (Forté Bio). To verify that no a specific binding was present during the assay, non-functionalized biosensors were used as a control by measuring in parallel all ligand concentrations as well as running buffer. For all mutants a two-fold dilution series from 6.4 μM-400 nM was employed. Data analysis was performed using the Data Analysis software 9.0.0.14 (Forté Bio) and binding curves were exported to Prism8 (Graphpad Software) for plotting of curves."}, "[2]": {"target": "T1, LTKTG-EGFL (human LTK amino acids …)", "assay": "BLI, biotinylated ALKAL1 F76E on streptavidin biosensors, LTKTG-EGFL in solution, dilution series 6.4 µM-400 nM, biphasic fit, component 2", "description": "as §1, §2"}, "[3]": {"target": "T1, LTKTG-EGFL (human LTK amino acids …)", "assay": "BLI, biotinylated ALKAL1 R115E on streptavidin biosensors, LTKTG-EGFL in solution, dilution series 6.4 µM-400 nM", "description": "as §1, §2"}, "[4]": {"target": "T2, ALKTG-EGFL (human ALK amino acids 648-1025) (human, UniProt Q9UM73 648-1025, N-linked glycans; EndoH-trimmed (deglycosylated) for crystals and SEC-MALLS)", "T2 construct": "The C-terminal Fc-His6 tag was removed by caspase 3; also called ALK (in BLI, SEC-MALLS and ITC)", "T2 sequence (Q9UM73 648-1025)": "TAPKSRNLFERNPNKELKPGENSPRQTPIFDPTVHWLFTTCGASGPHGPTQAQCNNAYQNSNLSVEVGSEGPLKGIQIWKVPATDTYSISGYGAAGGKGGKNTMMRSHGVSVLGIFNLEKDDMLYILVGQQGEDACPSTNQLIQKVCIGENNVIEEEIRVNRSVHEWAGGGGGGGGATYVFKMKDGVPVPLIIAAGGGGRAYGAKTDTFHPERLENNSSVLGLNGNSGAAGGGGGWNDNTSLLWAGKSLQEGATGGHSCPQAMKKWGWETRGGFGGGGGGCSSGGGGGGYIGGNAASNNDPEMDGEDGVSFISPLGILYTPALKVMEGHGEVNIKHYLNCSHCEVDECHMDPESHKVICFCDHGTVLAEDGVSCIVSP", "assay": "BLI, biotinylated ALKAL2 F97E on streptavidin biosensors, ALKTG-EGFL in solution", "description": "as §1, §2"}, "[5]": {"target": "T1, LTKTG-EGFL (human LTK amino acids …)", "assay": "BLI, biotinylated ALKAL2 F97E on streptavidin biosensors, LTKTG-EGFL in solution, dilution series 6.4 µM-400 nM; only component 1 is printed", "description": "as §1, §2"}, "[6]": {"target": "T2, ALKTG-EGFL (human ALK amino acids …)", "assay": "BLI, biotinylated ALKAL2 R136E on streptavidin biosensors, ALKTG-EGFL in solution, dilution series 6.4 µM-400 nM", "description": "as §1, §2"}, "[7]": {"target": "T1, LTKTG-EGFL (human LTK amino acids …)", "assay": "BLI, biotinylated ALKAL2 R136E on streptavidin biosensors, LTKTG-EGFL in solution, dilution series 6.4 µM-400 nM", "description": "as §1, §2"}, "[8]": {"target": "T1, LTKTG-EGFL (human LTK amino acids …)", "assay": "ITC at 310 K, LTKTG-EGFL (7.2 µM) titrated with ALKAL1FL (55 µM), one-site model", "description": "The right panel represents the binding isotherm obtained from the integration of the raw data and fitted to a one-site model. Standard deviations were calculated based on 3 measurements.\n(§3) Experiments were performed using a MicroCal PEAQ-ITC instrument at 310K. Proteins used in ITC experiments were expressed in HEK293S cells grown in suspension. As a final purification step all proteins were buffer exchanged to the same HBS buffer via size-exclusion chromatography. Titrations were preceded by an initial injection of 0.5 μL. The injection spacing was optimized per experiment to allow for the signal to get back to a stable baseline. Throughout the titration the sample was stirred at a speed of 750 r.p.m. Data were analyzed using the PEAQ-ITC analysis software (version 1.1.0.1262, Malvern) and fit using a “one set of sites” model."}, "[9]": {"target": "T3, LTKTG (human LTK amino acids 63-379) (human, UniProt P29376 63-379)", "T3 construct": "also called LTK TG supradomain", "T3 sequence": "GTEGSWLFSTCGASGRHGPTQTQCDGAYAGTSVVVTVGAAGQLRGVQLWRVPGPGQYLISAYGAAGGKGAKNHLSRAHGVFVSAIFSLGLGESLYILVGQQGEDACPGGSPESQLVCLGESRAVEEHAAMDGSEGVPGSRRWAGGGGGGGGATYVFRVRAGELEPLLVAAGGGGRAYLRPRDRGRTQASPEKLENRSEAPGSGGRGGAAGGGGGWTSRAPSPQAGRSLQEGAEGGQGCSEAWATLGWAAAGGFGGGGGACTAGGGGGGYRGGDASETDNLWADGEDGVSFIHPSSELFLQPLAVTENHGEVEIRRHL", "assay": "ITC at 310 K, LTKTG (10 µM) titrated with ALKAL1FL (40 µM), one-site model", "description": "FIG. 12H, ITC experiments for the titration of LTKTG (10 μM) with ALKAL1FL (40 μM) Standard deviations were calculated based on 2 measurements.\nas §3"}}}
{"binder": "ALKAL1^F76E (residues 57-129) (ligand, human, UniProt Q6UXT8 57-129, looked up, range 57-129; Avi-tagged and biotinylated in BLI; used as purified protein in SEC-MALLS and Ba/F3 assays; also called ALKAL1 site 2 mutant) PSGSRSAEIFPRDSNLKDKEIKHFTGPVTFSPECSKHFHRLYYNTRECSTPAYYKRCARLLTRLAVSPLCSQT", "values": [{"measurement": "Kd", "setting": "[1]", "result": 350, "unit": "nM"}, {"measurement": "koff", "setting": "[1]", "result": 0.0005, "unit": "s⁻¹"}, {"measurement": "kon", "setting": "[1]", "result": 4000, "unit": "M⁻¹ s⁻¹"}, {"measurement": "Kd", "setting": "[2]", "result": 1500, "unit": "nM"}, {"measurement": "koff", "setting": "[2]", "result": 0.11, "unit": "s⁻¹"}, {"measurement": "kon", "setting": "[2]", "result": 60000, "unit": "M⁻¹ s⁻¹"}]}
{"binder": "ALKAL1^R115E (residues 57-129) (ligand, human, UniProt Q6UXT8 57-129, looked up, range 57-129; also called ALKAL1 site 1 mutant R115E) PSGSRSAEIFPRDSNLKDKFIKHFTGPVTFSPECSKHFHRLYYNTRECSTPAYYKRCAELLTRLAVSPLCSQT", "values": [{"measurement": "Kd", "setting": "[3]", "result": 3100, "unit": "nM"}, {"measurement": "koff", "setting": "[3]", "result": 0.041, "unit": "s⁻¹"}, {"measurement": "kon", "setting": "[3]", "result": 13000, "unit": "M⁻¹ s⁻¹"}]}
{"binder": "ALKAL2^F97E (residues 78-152) (ligand, human, UniProt Q6UX46 78-152, looked up, range 78-152; Avi-tagged and biotinylated in BLI; used as purified protein in SEC-MALLS and Ba/F3 assays; also called ALKAL2 site 2 mutant F97E) PSPEQRVEIVPRDLRMKDKELKHLTGPLYFSPKCSKHFHRLYHNTRDCTIPAYYKRCARLLTRLAVSPVCMEDKQ", "values": [{"measurement": "Kd", "setting": "[4]", "result": 200, "unit": "nM"}, {"measurement": "koff", "setting": "[4]", "result": 0.071, "unit": "s⁻¹"}, {"measurement": "kon", "setting": "[4]", "result": 450000, "unit": "M⁻¹ s⁻¹"}, {"measurement": "Kd", "setting": "[5]", "result": 8400, "unit": "nM"}, {"measurement": "koff", "setting": "[5]", "result": 0.16, "unit": "s⁻¹"}, {"measurement": "kon", "setting": "[5]", "result": 53000, "unit": "M⁻¹ s⁻¹"}]}
{"binder": "ALKAL2^R136E (residues 78-152) (ligand, human, UniProt Q6UX46 78-152, looked up, range 78-152; also called ALKAL2 site 1 mutant R136E) PSPEQRVEIVPRDLRMKDKFLKHLTGPLYFSPKCSKHFHRLYHNTRDCTIPAYYKRCAELLTRLAVSPVCMEDKQ", "values": [{"measurement": "Kd", "setting": "[6]", "result": 1500, "unit": "nM"}, {"measurement": "koff", "setting": "[6]", "result": 0.8, "unit": "s⁻¹"}, {"measurement": "Kd", "setting": "[7]", "result": 5900, "unit": "nM"}, {"measurement": "koff", "setting": "[7]", "result": 0.12, "unit": "s⁻¹"}, {"measurement": "kon", "setting": "[7]", "result": 20000, "unit": "M⁻¹ s⁻¹"}]}
{"binder": "ALKAL1FL (full-length ALKAL1, residues 28-129) (ligand, human, UniProt Q6UXT8 28-129, looked up, range 28-129; Sumostar tag removed by caspase 3) RPRGRRGARVTDKEPKPLLFLPAAGAGRTPSGSRSAEIFPRDSNLKDKFIKHFTGPVTFSPECSKHFHRLYYNTRECSTPAYYKRCARLLTRLAVSPLCSQT", "values": [{"measurement": "Kd", "setting": "[8]", "result": 11, "unit": "nM"}, {"measurement": "ΔG", "setting": "[8]", "result": -11.3, "unit": "kcal/mol"}, {"measurement": "ΔH", "setting": "[8]", "result": -31.7, "unit": "kcal/mol"}, {"measurement": "Kd", "setting": "[9]", "result": 24, "unit": "nM"}, {"measurement": "ΔG", "setting": "[9]", "result": -10.8, "unit": "kcal/mol"}, {"measurement": "ΔH", "setting": "[9]", "result": -29.6, "unit": "kcal/mol"}]}
